1 molecule from US20250059285A1 can be followed below.

The experiment has as its target cynomolgus Gal10-His (WGS isoform) (cynomolgus). As to the kind of experiment: SPR Biacore 3000 on cynomolgus Gal10 (WGS isoform). Background: Surface plasmon resonance follows binding to a sensor surface in real time, without labels.

B1: g7B07-mIgG1 (antibody, V domains shown)
VH: EVQLLESGGGLVQPGGSLRLSCAASGFTFRSYDMSWVRQAPGKGLEWVSAIKNGGGITYYADSVKGRFTISRDNSKNTLYLQMNSLRAEDTAVYYCATTHGIGTLGFGSWGQGTLVTVSS
VL: SYELTQPLSVSVALGQTARITCDGNNIGSKSAQWYQQKPGQAPVLVIYADEYRPEGIPERFSGSNSGNTATLTISRAQAGDEADYYCQVWDGSAAVFGGGTQLTVL
The term Kd denotes the free concentration of one partner at which half of the binding sites on the other are occupied at equilibrium, for simple one-to-one binding. The low end stands for tighter binding, the high end for weaker binding. B1 registered a Kd of 1.5 nM.
